Reference: patent publication US20190040477

Experiments:
[1] = test system: GST-wRtACPII (wild type second ACP domain of Rhodosporidium toruloides Fas2, residues 1213-1375, as GST fusion protein)
[2] = test system: GST-mRtACPII (S1253A mutant of the second ACP domain of Rhodosporidium toruloides Fas2, residues 1213-1375, as GST fusion protein)
[3] = test system: GST-wRtACPI (wild type first ACP domain of Rhodosporidium toruloides Fas2, residues 1022-1184, as GST fusion protein)
[4] = test system: GST-mRtACPI (S1062A mutant of the first ACP domain of Rhodosporidium toruloides Fas2, residues 1022-1184, as GST fusion protein)

How did the ΔM (Da): gain in molecular weight of the ACP after treatment by PPT, MALDI-TOF mass spectrometry (in vitro phosphopantetheinylation) [1] turn out when “GST-RtPPT (phosphopantetheinyl transferase domain of Rhodosporidium toruloides Fas2, residues 2809-2928, as GST fusion protein)” was run?
The ΔM (Da): gain in molecular weight of the ACP after treatment by PPT, MALDI-TOF mass spectrometry (in vitro phosphopantetheinylation) was 322 Da.

What about the ΔM (Da): change in molecular weight of the ACP after treatment by PPT, MALDI-TOF mass spectrometry (in vitro phosphopantetheinylation) [2] of the same substance?
The ΔM (Da): change in molecular weight of the ACP after treatment by PPT, MALDI-TOF mass spectrometry (in vitro phosphopantetheinylation) was 46 Da.

And the ΔM (Da): gain in molecular weight of the ACP after treatment by PPT, MALDI-TOF mass spectrometry (in vitro phosphopantetheinylation) [3]?
The ΔM (Da): gain in molecular weight of the ACP after treatment by PPT, MALDI-TOF mass spectrometry (in vitro phosphopantetheinylation) was 332 Da.

And the ΔM (Da): change in molecular weight of the ACP after treatment by PPT, MALDI-TOF mass spectrometry (in vitro phosphopantetheinylation) [4]?
Its ΔM (Da): change in molecular weight of the ACP after treatment by PPT, MALDI-TOF mass spectrometry (in vitro phosphopantetheinylation) is 2 Da.
